Results on one molecule are retold here after patent publication US20100216196A1 (AJINOMOTO, published 2010).

This test deals with T1, DsbA protein of Escherichia coli (protein encoded by the dsbA gene) (Escherichia coli, UniProt P0AEG4 20-208, free cysteine thiols labelled with AMS (4-acetamido-4'-maleimidyl-stilbene-2,2'-disulfonate) before electrophoresis).
T1 construct: Endogenous periplasmic DsbA of E. coli BW25113, detected in cell lysates; also called disulfide oxidoreductase
T1 sequence: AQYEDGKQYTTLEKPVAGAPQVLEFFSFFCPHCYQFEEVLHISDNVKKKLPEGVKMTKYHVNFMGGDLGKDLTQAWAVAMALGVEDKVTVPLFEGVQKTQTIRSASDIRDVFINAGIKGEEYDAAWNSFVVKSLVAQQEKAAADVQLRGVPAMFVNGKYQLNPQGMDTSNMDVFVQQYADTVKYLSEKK
The test can be described thus: AMS modification, non-reducing SDS-PAGE and Western blot with anti-DsbA serum; wild-type E. coli BW25113 exposed to 5 mM cysteine.

B1: DsbB (enzyme)
chain: MLRFLNQCSQGRGAWLLMAFTALALELTALWFQHVMLLKPCVLCIYERCALFGVLGAALIGAIAPKTPLRYVAMVIWLYSAFRGVQLTYEHTMLQLYPSPFATCDFMVRFPEWLPLDKWVPQVFVASGDCAERQWDFLGLEMPQWLLGIFIAYLIVAVLVVISQPFKAKKRDLFGR
notes: Endogenous protein in the wild-type strain, seen only as the DsbA-DsbB complex band on the anti-DsbA Western blot; also called intracellular membrane protein DsbB
Take B1: the binding result is “binds”.
